Where two headings read alike, the source gives them in different places.
Tests used:
[1] = target: Nicotiana benthamiana subtilisin-like serine protease SBT2, recombinant, C-terminal hexahistidine tag; test: enzyme inhibition (fluorogenic substrate); pH 5.5, 30°C
[2] = target: Nicotiana benthamiana subtilisin-like serine protease SBT1, recombinant, C-terminal hexahistidine tag; test: as above
gp41 peptide […] = test: SPR, antibody captured on Protein A chip, peptide as analyte, 1:1 model
[3] = target: T1, Nicotiana benthamiana subtilisin-like serine protease SBT2, recombinant, C-terminal hexahistidine tag; test: enzyme inhibition (fluorogenic substrate); pH 5.5, 30°C
T1 chain: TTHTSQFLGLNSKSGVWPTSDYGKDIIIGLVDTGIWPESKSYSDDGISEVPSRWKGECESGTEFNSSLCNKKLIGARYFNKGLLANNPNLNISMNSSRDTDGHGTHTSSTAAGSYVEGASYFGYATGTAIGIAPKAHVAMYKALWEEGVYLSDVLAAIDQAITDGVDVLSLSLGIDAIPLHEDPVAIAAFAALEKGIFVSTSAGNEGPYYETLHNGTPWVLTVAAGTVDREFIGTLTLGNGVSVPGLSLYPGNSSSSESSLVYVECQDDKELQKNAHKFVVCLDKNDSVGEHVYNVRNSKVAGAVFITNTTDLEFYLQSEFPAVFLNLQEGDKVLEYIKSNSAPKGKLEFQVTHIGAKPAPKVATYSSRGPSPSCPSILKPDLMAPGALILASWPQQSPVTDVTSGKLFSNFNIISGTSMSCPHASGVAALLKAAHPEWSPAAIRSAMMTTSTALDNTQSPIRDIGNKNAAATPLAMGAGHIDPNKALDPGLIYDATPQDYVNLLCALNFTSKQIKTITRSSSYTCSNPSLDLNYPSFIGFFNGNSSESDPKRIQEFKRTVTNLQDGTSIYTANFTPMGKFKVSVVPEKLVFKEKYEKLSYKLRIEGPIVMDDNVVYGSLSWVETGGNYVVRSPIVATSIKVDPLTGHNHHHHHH

[4] = target: T2, Nicotiana benthamiana subtilisin-like serine protease SBT1, recombinant, C-terminal hexahistidine tag; test: as above
T2 chain: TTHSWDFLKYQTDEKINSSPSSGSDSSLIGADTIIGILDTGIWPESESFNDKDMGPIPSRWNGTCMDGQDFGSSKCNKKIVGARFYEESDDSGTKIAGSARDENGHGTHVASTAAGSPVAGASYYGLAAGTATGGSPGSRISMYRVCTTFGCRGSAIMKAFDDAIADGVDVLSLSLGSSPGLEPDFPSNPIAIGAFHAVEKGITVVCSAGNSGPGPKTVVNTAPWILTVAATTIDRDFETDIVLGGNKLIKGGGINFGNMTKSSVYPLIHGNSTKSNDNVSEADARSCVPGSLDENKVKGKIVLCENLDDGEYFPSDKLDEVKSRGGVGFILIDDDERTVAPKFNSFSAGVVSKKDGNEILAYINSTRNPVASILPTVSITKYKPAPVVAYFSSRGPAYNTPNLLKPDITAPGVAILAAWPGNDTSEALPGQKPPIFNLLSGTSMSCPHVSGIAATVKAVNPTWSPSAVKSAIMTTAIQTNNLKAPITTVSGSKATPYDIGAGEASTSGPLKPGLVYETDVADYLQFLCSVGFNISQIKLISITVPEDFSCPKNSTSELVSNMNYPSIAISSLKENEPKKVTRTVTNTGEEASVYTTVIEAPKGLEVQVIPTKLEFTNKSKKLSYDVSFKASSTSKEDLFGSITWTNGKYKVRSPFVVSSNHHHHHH

In the case of “S106g065370 (subtilisin propeptide-like inhibitor from S. lycopersicum)”, the Ki [1] is reported as 27 nM.

Molecule “S111g018590 (subtilisin propeptide-like inhibitor from S. lycopersicum)” has a Ki [2] of 51 nM.

Molecule “cleaved 2F5 (2F5 degradation product after digestion with apoplastic fluid proteases) (antibody)” has a fold reduction of affinity against intact 2F5 (gp41 peptide […]) greater than 20 fold.

B1: Arabidopsis thaliana subtilisin propeptide-like inhibitor 2 (other)
chain: RTLGPAPDNQQMKCYLVNVDFALYHGDCKQYQQLLKKVVHGRSAKDALVYCYKEVMSGFAAKLTAAEAEKLKGEKGISAIDVDHIFSMDVEPHSHGKGY
With B1 the Ki [3] was 45 nM and the Ki [4] was 81 nM.

— patent US20220228161A1 (published 2022)
